This note sets out measurements from publication PMC12701072, “DNA Wrapping by a tetrameric bacterial histone”.

In data set [1] the target is HLp from Leptospira perolatii (Leptospira perolatii). Put plainly: crystal structure; DNA-free HLp, 1.30 Å, molecular replacement; dimer in the asymmetric unit, tetramer by crystallographic symmetry.
Data set [2] shares this target. Nature of the data set: crystal structure; HLp-DNA_1: HLp co-crystallized with the 30-bp-GC40 DNA fragment, 2.10 Å; dimer in the asymmetric unit, tetramer by crystallographic symmetry.
Data set [3] shares this target. Nature of the data set: crystal structure; HLp-DNA_2: HLp co-crystallized with the 30-bp-GC40 DNA fragment, 1.90 Å; monomer in the asymmetric unit, tetramer by crystallographic symmetry.
For data set [4] the target is unchanged. Nature of the data set: SEC-MALS; HLp incubated with the 30-bp-GC40 DNA fragment at a protein-to-DNA molar ratio of 2:1, 37 °C for 10 min; Superdex 75 Increase 10/300 GL, 25 mM Tris, 50 mM NaCl, 50 mM KCl, pH 7.5. In general terms: In gel filtration, larger molecules generally elute earlier.
Data set [5] has the same target. Nature of the data set: SEC-MALS; HLp alone; Superdex 75 Increase 10/300 GL, 25 mM Tris, 50 mM NaCl, 50 mM KCl, pH 7.5; samples incubated at 37 °C for 10 min; oligomer in solution.
For data set [6], the target named is T1, HLp (Leptospira perolatii, UniProt A0A2M9ZN55 1-63).
T1 sequence: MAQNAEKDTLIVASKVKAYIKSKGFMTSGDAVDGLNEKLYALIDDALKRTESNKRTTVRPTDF
Put plainly: SEC-MALS; complex 69.2 +/- 5.7 kDa: one tetramer with two duplexes; EMSA: 25 mM Tris pH 8.0, 50 mM NaCl, 50 mM KCl, 37 C 10 min; MST: 20 mM Tris pH 8.0, 150 mM NaCl, measured at 25 C (HLp 10 nM DNA, HMfB 20 nM DNA). To be noted: protein: recombinant; tags: N-terminal His6, cleaved with TEV protease; chain copies: 4; blunt.

The target of data set [7] is HMfB (Methanothermus fervidus, UniProt P19267 1-69). Nature of the data set: MST; EMSA: 25 mM Tris pH 8.0, 50 mM NaCl, 50 mM KCl, 37 C 10 min; MST: 20 mM Tris pH 8.0, 150 mM NaCl, measured at 25 C (HLp 10 nM DNA, HMfB 20 nM DNA). To be noted: protein: recombinant; chain copies: 4; label: 5'-Cy5 on strand 1; blunt. In general terms: In EMSA bound probe runs differently from free probe, usually more slowly.
Chain of HMfB (P19267 whole entry): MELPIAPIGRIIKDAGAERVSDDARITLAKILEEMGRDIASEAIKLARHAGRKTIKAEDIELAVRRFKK

Data set [8] has as its target T1, HLp. Nature of the data set: MST; 20 mM Tris pH 8.0, 150 mM NaCl; EMSA: 25 mM Tris pH 8.0, 50 mM NaCl, 50 mM KCl, 37 C 10 min; MST: 20 mM Tris pH 8.0, 150 mM NaCl, measured at 25 C (HLp 10 nM DNA, HMfB 20 nM DNA). To be noted: protein: recombinant; tags: N-terminal His6, cleaved with TEV protease; chain copies: 4; label: 5'-Cy5 on strand 1; blunt.

Take “HLp from Leptospira perolatii (natural protein)”: the stoichiometry N in data set [1], in data set [2], in data set [3], in data set [4] and in data set [5] was 4 each time.

B1: 30-bp-GC40 (dsDNA)
DNA 1: TTTAAAGCCGTTTAAAGCCGTTTAAAGCCG
DNA 2: CGGCTTTAAACGGCTTTAAACGGCTTTAAA
As to B1, in data set [6], the binding result is “binds”.

B2: 80-bp DNA [Cy5] (dsDNA)
DNA 1: CCGTACTGTCGTCTGCGGCCTTTGATTATCAATTAAAGCGTTCTACGGCGTTTTTGATCGCTCAACGTGCGGAGCTAGAT
DNA 2: ATCTAGCTCCGCACGTTGAGCGATCAAAAACGCCGTAGAACGCTTTAATTGATAATCAAAGGCCGCAGACGACAGTACGG
As for B2, the dissociation constant (Kd) – broadly, a measure of binding affinity in units of concentration – was 580 ± 130 nM in data set [7] and 3180 ± 1060 nM in data set [8].

B3: 80-bp-GC40 [Cy5] (dsDNA)
DNA 1: TTTAAAGCCGTTTAAAGCCGTTTAAAGCCGTTTAAAGCCGTTTAAAGCCGTTTAAAGCCGTTTAAAGCCGTTTAAAGCCG
DNA 2: CGGCTTTAAACGGCTTTAAACGGCTTTAAACGGCTTTAAACGGCTTTAAACGGCTTTAAACGGCTTTAAACGGCTTTAAA
For the molecule B3, the dissociation constant (Kd) was found to be 310 ± 80 nM in data set [7] and 1240 ± 140 nM in data set [8].
